test: yeast display, Sf9 membrane polyspecificity reagent, FACS + sequencing; frameworks hold sequencing errors
In short: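 Galactose induction of a Saccharomyces cerevisiae BJ5465 synthetic nanobody display library ran 36–48 hours. The cells were then stained for 1 hour at 4 °C with 10% biotinylated, detergent-solubilized Sf9 membrane reagent, pulled down on streptavidin microbeads and FACS-sorted into low and high (top ~1%) gates on expression and reagent-binding fluorescence. Labels for polyreactivity follow the gate of origin.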

Sequence	polyreactivity (PSR sort gate)
QVQLVESGGGLVQAGGSLRLSCAPSGYIFPEYVMGWYRQSPGKERELVAVITWDGTSTYADSVKGRFTISRDNAKNTVYLQMNSLIPVDTAVYYCAADTNYYVDTAGYGDGLDSWGQGTQVTVSS	low polyreactivity
QVQLVESGGGLVQAGGSLRLSCAASGRTFYGYTMGWYRQAPGKERELDAAIRTSGGSTYADSVKGRFTISRDNAKNTVYLQMNSLKPEDTAVYYCAAPRVVYYGTAPAYRYDYWGQGTQVTVSS	high polyreactivity
QVQLVESGGGLVQAGGSLRLSCAASGSIFRYNAMGWYRQAPGKERELVAGISWSGGSTYYADSVKGRFTISRDNAKNTVYLQMNSLKPEDTAVYYCATRVGRYWTAGYYWGQGTQVTVSS	high polyreactivity
QVQLVESGGCLVQAGGSLRLSCAASGRIIGANAMGWYRQAPGKERELVAAITKNGGRTYYADSVKGRFTISRDNAKNTVYLQMNSLKPEDTAVYYCARGLDVISYGYDYWVQGTQVTVSS	high polyreactivity
QVQLVESVGGLVQAGVSLRLRCAASGFIFWYYAMGWYRQATGKDRELVASISARDGSTYYADSVKGRFTISRYNAKNTVYLQMNSLKPEDTAVYYCNAVQRYPKYRMDYCGQGTQVTVSS	low polyreactivity
QVQLVESGGGIVQAGGSLRLSCAASGRIFVRNAMGWYRQARGKERELVAAISWSGGTNYADSVKGSFTISRDNAKNTVYLQMNILKPEDTAVYYCAALSVWSYYTYYYWGQGTQVTVSS	high polyreactivity
QVQLVESGGGLVQAGGSLRLSCAASGSIFVNYAMGWSRQAPGKERELVAAISRDGGRTYYADSVKGRFTISRDNAKNTVYLQMNSLKPEDTAVYYCNAVIPSTAYYRYGYWGQGTQVTVSS	high polyreactivity
QVQLVESGGGLVQAGGSLRLSCAASGIILRYYAMGWYRQAPGKERELVASITSSGGRTYYADSVKGRFRISRDNAKNTVYLQMNSLKPEDTAVDYCAAKWAVVSGYGYWGQGTQVTVSS	high polyreactivity
QVQLVESGGGLVQAGGSLRLSCAASGITFLYYAMGWYRQAPGQERELVAAITSSGGRTYYADSVKGRFTISRDNAKNTVYLQMNSLKPEDTAVYYCAADSRTYNGGYYWGQGTQVTVSS	high polyreactivity
QVQLVESGGGLVQAGGSLRLSCAPSGSIFPYYAMGWYRQAPGKERELVAAISGSDGTTYYADSVKGRFTISRDNAKNTVYLQMNSLKPEDTAVYYCAVELPELYYYFAYEYWGQGTQVTVSS	high polyreactivity
QVQLVESGGGLVQAGGSLRLSCAASVFIFGLYVMGWYRQAPGKERELVAAITFNGGSTYADSVKGRFTISRDNAKNTVYLQMNSLKPEDTAVYYCNAGRAVYRYWYKYVYWGQGTQVTVSS	high polyreactivity
QVQLVESGGGLVQAGGSLRLSCSATGSTFTINSMGWYRQAPGKERELVAATSKRGTNTYYADSVKGRFTISRDNAKNTVYLQMNSMKTEDSAVYYCKAPGHRQNGLGDYWGQGTQVTVSS	high polyreactivity
QFQLVESGGGLVQAGGSLRLSCAASGIILRGYAMGWYRQAPGKERELVASISRGGSTNYADSVKGRFTISRDNAKNTVYLQMNSLKPEDTAVYYSNARIWYYGRYQGAYRFDYWGQGTQVTVSS	high polyreactivity
QVQLVESGGGLVQAGGSLRLSCAASGSIFSKYVMGWYRQAPGKERELVAAISWSGTRTYYADSVKGRFTISRDNAKNTVYLQMNSLKPEDTAVYYCAARRPVRVPGQYDYWGQGTQVTVSS	high polyreactivity
QVQLVESGGGLVQAGGSLRLSCAASGRIFYVYAMGWYIKAPGKERELVAAITSSGGRTNYADSVKGRFTISRDNAKNTVYLQMNSLKPEDTAVYYCAAAYPWGDYGVSDYDYWGQGTQVTVSS	low polyreactivity
QVQLVESGGGLVQAGGSLRLSCAASGSTFGVYAMGWYRQAPGKDRELVAAISRSGGRTYYADSVKGRFTISRDNAKNSVYLQMNSLKPEDTAVYYCALYGGLGDRFRPRYYWGQGTQVTVSS	high polyreactivity
QVQLVESGGGLVQAGGSLRLSCAASGITFEWYDMGWYRQAPGKEKDLVAAISQSGASTYYADSVKGRFTISRDNAKNTVYLQMNSLKPEETAVYYCATRARYVGGYKYNYWGQGTQVTVSS	high polyreactivity
QVQLVESGGGLVQAGGSLPLSCAASGSIFDDYAMGWYRQAPGKEWELVAAITSGGSTYYADSVKGRFTISRDNAKYTVYLQMNSLKPEDTAVYYCAAPENKYDEYDYWGQGTQVTVSS	low polyreactivity
QVQLVESGGGLVQAGGSLRLSCAASGIIFPSYVMGWYRQAPGKERELVAAISSRGTSTYYADSVKGRFTISRDHAKNTVYLQMNSLKPEDTAVYYCAAKSFGTTTRSEYDYWGQGTQVTVSS	high polyreactivity
QVKLVESGGGLVQAGGSLRLSCAASGRTFYIYAMGWYRQAPGKERELVAAITYGGGRTFYADSVKGRFTISRDNAKNTVYLQMNSRKPEDTAVYYCAATVRGKRSTYDYWGQGTQVTVSS	high polyreactivity
QVQLVESGVGLVQAGGSLRLSCAASGSTFYYYAMGWYRQAPGKERELVAAISWSGASTFYADSVKGRFTISRDNAKITVYLQMNSLKPEDTAVFYCAARYYGQPQYQPLYYWGQGTQVTVSS	high polyreactivity
QVHLVESGGGLVQAGGSLRLSCAASGITFSKYEMGWYRQAPWKERELVAAITSTGSTYYADSVKGRFTISRDNAKNTVYLQMNSVKPEDTAVYYCAAERRVFYYCHKLTYWYDYWGQGTQVTVSS	low polyreactivity

Sequence	polyreactivity (PSR sort gate)
QFQLVDSGGGLVQAGGSLRLSCAASGLIFFYYAMGWYRQAPGKERELVAAIRTNYADSVKGRFTISRDNAKNTVYLQMNSLKPEDTAVYYCAAESSQTPTSAFDYWGQGTQVTVSS	low polyreactivity
QGQLVESGGGLVQAGGSLRLSCAASGFTFKFYAMGWYRQAPGKEREFVAAISGSGGSTYYAHSVKGRFTISRDNAKNTVYLQMNSLKPEDTAVYYCAAEVPGKPYGRSRYSFRHDYWGQGTQVTVSS	low polyreactivity
QVQLVESGGGLVQAGGSLRLSCAASGSIFSRIAMGWYRKAPGKERELVAAISGRGGSTYYADSVKGRFTISRDNAKNTVYLHMKSLKPEDTAVYYCAKAVNYRLSQAMDYWGQGTQVTVSS	high polyreactivity
QVQLVESGGGLVQAGGSLRLSCAASGLTFYGYTMGWYRQAPGKERELVADISISGGSTRYADSVKGRFTISRDNAKNTVYLQMNSLKPEDTAVYYCARDDIYYSNIYDYWGQGTQVTVSS	low polyreactivity
QVQLVESGGGLVQAGGSLRLSCAASGRIFGYYAMEWNRQAPGKERELVATITFGGGSTYYADSVKGRFTISRDKAKNTVYLQMNSLKPEDTAVSFCAAEGVHYDGDYGTGYDYWGQCTQVTVSS	low polyreactivity
QVQLVESGGGLVQAGGSLRLSCAASGSIFTRNTMGWYRQAPGKDRELVAAITWIGGRTYYADSVKGRFTISRDNAKNTVYLQMNSLKPEDTAVYYCAARSDPYWWQKYYYWGQGTQVTVSS	high polyreactivity
QVQLVESGGGLVQAGGSLRLSCAASGITFYKYTMGWYRQAPGKERELVAAISVRGGRTYYADSVKGRFTISRDYAKNTVDLQMNSLKPEDTAVYYCAAGSQPGRKYYYWGQGTQVTVSS	high polyreactivity
QVQQVESGGGLVQAGGSLRLSWAASGRIFVINGMGWYRQAPGKERELVAGISSGGTTYADSVKGRFTISRDNAKNTVYLQMNSLKPEDTEVYYCAARGRYQPQFDYWGQGTQVTVSS	high polyreactivity
QVQLVESGGGLVQAGGSLRLICAASGRTYHGYAMGWYRQAPGKERELVAAITSSGARTYYADSVKGRFTLSRDNAKKTVYLQMNSLKPEDTAVYYCAVNWLRGMDWGQGTQVTVSS	high polyreactivity
QVQLVESGGGLVQAGGSLRLSCAASGFIFTYYAMGWYRQAPGKERELVARITSGGASTYYADSVKGRFTISRDNAKNTVYLQMNSLKPEDTAVYYCAAQARGWGYDYWGQGTQVTVSS	low polyreactivity
QVQLVESGGGIVQAGGSLRLSCAASGLTFRYYAMGWYRQAPGKERELVAAISGSGGSTYYADSVKGRFTISRDNAKNTVYLQLNRLKPEDTAVYYFASENESSSWGDYAMGYWGQGTQVTVST	high polyreactivity
QVQLVESCVVLVQAGGSLRLSCAASGSIFGYYAMGWYRQAPGKERELVAAISDGGTITYYADSVKGRFTISRDHAKNTVYLQMNSLKPEVTAVYYCAARSPPRYYEHRFYYWGQGTQVTVSS	high polyreactivity
QVQLVESGGGLVQAGGSLRLSCPASGFIYPVYAMGWSRQAPGKERELVAAISRRGGSTYYADSVKGRFTISRDNAKNTVYLQMNSLKPDDTAVYYCAKDGRGDPVKDDYWGLGTQVTVSS	high polyreactivity
QVQLVESGGGLVQAGGSLRLSCAASGSIFITNAMGWYRQAPGKERELVAGITSGGSTYYADSVKGRFTISRDNAKNTFYLQMNSLKPEDTAVYYCAADGVTVTADEYDYWGHGTQVTVSS	low polyreactivity
QVQLVESGGGLVQAGGILLLSCAASGRTFRVNTMGWYRQAPGTESELVAAISYSGASTYYADSVKGRFTISRDNAKNTVYLQMNSLKPEDTAVYYCAAAVGVALNDYWGQGTQVTVSS	high polyreactivity
QVQLVDSGGGLVQAGGSLRLSCAASGSTFNPYAMGWYRQAPGKERELVAGISWSGGSTYYADSVKGRFSISRDNAKNTVYLQMNSLKPEDTAVYYCAVVVYWSVIYDFWGQGTQVTVST	low polyreactivity
QVQLVESGGGLVQAGGSLRLSCAASGNIFRGYTMGWYRQAPGKERELVAVISFGDGGTYYADSVKGRFTISRDNAKNTVYLQMNSLKPEDTAVYYCATDYQSTSVWGGHFVINPYDYWGQGTQVTVSS	low polyreactivity
QVQLVESGGGLVQAGGSLRLSCAASGIISYQKAMGWYRQAPGKERELVAGITYSGGSTYYADSVKGRFTISRDNAKNSVYLQMNSLKPEDTAVYYCAARVVYWTWAGLSKMDYWGQGTQVTVSS	high polyreactivity
QVQLVESGGGLVQAGGSLRLSCAASGSTFGGYTMGWYRQAPGKERELVAAITSRGGTTYYADSVKGRFTISRDNAKNTVYLQMNSLKPEDTAVYYCNRVSRYFYGFYWGQGTQVTVSS	high polyreactivity
QVQLVESGGGLVQAGGSLRLSCAASGSIFDWNALGWYRQAPGKERELVASITGSGGGTNYADSLKGRFTISRDNAKNTVYFQMNSLNPEDTAVYFCNADGLNLDGHEYWGQATQVTVSS	low polyreactivity
QVQLVESGGGLVQAGGSLRLSCAASGFIFDLYAMGWYRQAPGKERELVAAISPSGGSTYYADSVKGRFTISRDNAKNTVYLQMNSLKPEDTAVYYCNTGIRWAISKEYDYWGQGTQVTVSS	high polyreactivity

From the nanobody polyreactivity screen of Harvey et al. (2022)
